Source: patent US20250101080A1 (BIOSCEPTRE AUST, published 2025)

Assays:
[1] = target: T1, dysfunctional (non-functional) P2X7 receptor expressed on human cancer cells (human, UniProt Q99572 1-595); test: cell-based or functional assay
T1 sequence: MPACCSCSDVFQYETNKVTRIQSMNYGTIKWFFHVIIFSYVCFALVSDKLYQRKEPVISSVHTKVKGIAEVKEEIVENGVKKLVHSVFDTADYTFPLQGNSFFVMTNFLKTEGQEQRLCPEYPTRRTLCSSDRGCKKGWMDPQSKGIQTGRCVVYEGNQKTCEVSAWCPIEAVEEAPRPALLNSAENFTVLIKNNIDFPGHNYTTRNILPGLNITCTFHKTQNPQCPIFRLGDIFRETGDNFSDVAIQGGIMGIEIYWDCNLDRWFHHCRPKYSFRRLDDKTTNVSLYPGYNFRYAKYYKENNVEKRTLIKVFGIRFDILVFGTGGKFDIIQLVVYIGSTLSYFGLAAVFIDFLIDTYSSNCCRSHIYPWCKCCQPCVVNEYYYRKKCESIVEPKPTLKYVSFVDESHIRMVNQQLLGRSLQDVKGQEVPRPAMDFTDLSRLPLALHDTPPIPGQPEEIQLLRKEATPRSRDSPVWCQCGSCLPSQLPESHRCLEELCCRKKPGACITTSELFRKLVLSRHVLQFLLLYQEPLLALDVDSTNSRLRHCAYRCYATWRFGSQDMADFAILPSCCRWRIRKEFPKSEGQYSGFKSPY

[2] = target: T2, EXD2_K193A (nf-P2X7) surface fusion protein on HEK293 cells (human, UniProt Q99572 47-332); test: cell-based or functional assay
T2 sequence: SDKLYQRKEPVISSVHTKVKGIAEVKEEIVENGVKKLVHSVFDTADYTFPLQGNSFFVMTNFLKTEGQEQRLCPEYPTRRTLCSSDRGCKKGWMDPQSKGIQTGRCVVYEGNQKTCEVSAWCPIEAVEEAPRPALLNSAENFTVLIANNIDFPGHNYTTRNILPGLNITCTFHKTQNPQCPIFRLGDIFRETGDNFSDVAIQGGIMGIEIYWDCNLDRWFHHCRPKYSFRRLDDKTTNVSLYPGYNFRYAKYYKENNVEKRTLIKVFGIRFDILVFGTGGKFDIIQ

B1: PEP2-2-1-1 CAR (other)
chain: EVQLLESGGGLVQPGGSLRLSCAASGFTFRNHDMGWVRQAPGKGLEWVSAISGSGGSTYYADSVKGRFTISRDNSKNTLYLQMNSLRAEDTAVYYCAEPKPMDTEFDYRSPGTLVTVSSGGGESKYGPPCPSCPAPPVAGPSVFLFPPKPKDTLMISRTPEVTCVVVDVSQEDPEVQFNWYVDGVEVHNAKTKPREEQFNSTYRVVSVLTVLHQDWLNGKEYKCKVSNKGLPSSIEKTISKAKGQPREPQVYTLPPSQEEMTKNQVSLTCLVKGFYPSDIAVEWESNGQPENNYKTTPPVLDSDGSFFLYSRLTVDKSRWQEGNVFSCSVMHEALHNHYTQKSLSLSLGKPFWVLVVVGGVLACYSLLVTVAFIIFWVRSKRSRLLHSDYMNMTPRRPGPTRKHYQPYAPPRDFAAYRSRDQRLPPDAHKPPGGGSFRTPIQEEQADAHSTLAKIRVKFSRSADAPAYQQGQNQLYNELNLGRREEYDVLDKRRGRDPEMGGKPRRKNPQEGLYNELQKDKMAEAYSEIGMKGERRRGKGHDGLYQGLSTATKDTYDALHMQALPPR
[1]
  fold change in cell killing against empty vector transduced CD8 T cells (CytoTox 96 assay, 4 hours, 1:1 ratio, MDA-MB-231 cells): ~2.5 fold
[2]
  fold change in cell killing against empty vector transduced CD8 T cells (CytoTox 96 assay, 4 hours, 1:1 ratio): ~15 fold

B2: PEP2-472-2 CAR (other)
chain: EVQLLESGGGLVQPGGSLRLSCAASGYTFPMKDMGWVRQAPGKGLEWVSAISGSGGGTYYADSVKGRFTISRDNSKNTLYLQMNSLRAEDTAVYYCAEPKPMDTEFDYRSPGTLVTVLEGGGESKYGPPCPSCPAPPVAGPSVFLFPPKPKDTLMISRTPEVTCVVVDVSQEDPEVQFNWYVDGVEVHNAKTKPREEQFNSTYRVVSVLTVLHQDWLNGKEYKCKVSNKGLPSSIEKTISKAKGQPREPQVYTLPPSQEEMTKNQVSLTCLVKGFYPSDIAVEWESNGQPENNYKTTPPVLDSDGSFFLYSRLTVDKSRWQEGNVFSCSVMHEALHNHYTQKSLSLSLGKPFWVLVVVGGVLACYSLLVTVAFIIFWVRSKRSRLLHSDYMNMTPRRPGPTRKHYQPYAPPRDFAAYRSRDQRLPPDAHKPPGGGSFRTPIQEEQADAHSTLAKIRVKFSRSADAPAYQQGQNQLYNELNLGRREEYDVLDKRRGRDPEMGGKPRRKNPQEGLYNELQKDKMAEAYSEIGMKGERRRGKGHDGLYQGLSTATKDTYDALHMQALPPR
[1]
  fold change in cell killing against empty vector transduced CD8 T cells (CytoTox 96 assay, 4 hours, 1:1 ratio, MDA-MB-231 cells): ~2.25 fold
[2]
  fold change in cell killing against empty vector transduced CD8 T cells (CytoTox 96 assay, 4 hours, 1:1 ratio): ~11 fold
